B1: Tyrosine-protein phosphatase non-receptor type 18 (Mus musculus), Q61152 (parent)
chain: MSRHTDLVRSFLEQLEARDYREGAILAREFSDIKARSVAWKSEGVCSTKAGSRLGNTNKNRYKDVVAYDETRVILSLLQEEGHGDYINANFIRGIDGSQAYIATQGPLPHTLLDFWRLVWEFGVKVILMACQETENGRRKCERYWAREQEPLKAGPFCITLTKETTLNADITLRTLQVTFQKEFRSVHQLQYMSWPDHGVPSSSDHILTMVEEARCLQGLGPGPLCVHCSAGCGRTGVLCAVDYVRQLLLTQTIPPNFSLFQVVLEMRKQRPAAVQTEEQYRFLYHTVAQLFSRTLQDTSPHYQNLKENCAPICKEAFSLRTSSALPATSRPPGGVLRSISVPAPPTLPMADTYAVVQKRGASAGTGPGPRAPTSTDTPIYSQVAPRAQRPVAHTEDAQGTTALRRVPADQNSSGPDAYEEVTDGAQTGGLGFNLRIGRPKGPRDPPAEWTRV
partner: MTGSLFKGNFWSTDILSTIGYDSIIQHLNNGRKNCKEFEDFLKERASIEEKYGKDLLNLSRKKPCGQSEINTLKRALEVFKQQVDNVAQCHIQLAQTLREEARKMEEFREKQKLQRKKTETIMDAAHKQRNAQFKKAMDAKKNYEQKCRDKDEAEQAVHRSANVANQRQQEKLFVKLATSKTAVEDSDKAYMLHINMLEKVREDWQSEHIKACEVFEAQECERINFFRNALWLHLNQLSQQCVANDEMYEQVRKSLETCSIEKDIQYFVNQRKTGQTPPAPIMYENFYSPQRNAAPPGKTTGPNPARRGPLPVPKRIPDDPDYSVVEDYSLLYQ
B2: Proline-serine-threonine phosphatase-interacting protein 2 (Mus musculus), Q99M15 (parent)
chain: B1 partner
partner: B1 chain
B3: Proline-serine-threonine phosphatase-interacting protein 1 (Mus musculus), P97814 (parent)
chain: MMAQLQFRDAFWCRDFTAHTGYEVLLQRLLDGRKMCKDVEELLRQRAQAEERYGKELVQIARKAGGQTEMNSLRTSFDSLKQQTENVGSAHIQLALALREELRSLEEFRERQKEQRKKYEAIMDRVQKSKLSLYKKTMESKKAYDQKCRDADDAEQAFERVSANGHQKQVEKSQNKAKQCKESATEAERVYRQNIEQLERARTEWEQEHRTTCEAFQLQEFDRLTILRNALWVHCNQLSMQCVKDDELYEEVRLTLEGCDVEGDINGFIQSKSTGREPPAPVPYQNYYDREVTPLIGSPSIQPSCGVIKRFSGLLHGSPKTTPSAPAASTETLTPTPERNELVYASIEVQATQGNLNSSAQDYRALYDYTAQNSDELDISAGDILAVILEGEDGWWTVERNGQRGFVPGSYLEKL
partner: B1 chain
B4: Tyrosine-protein phosphatase non-receptor type 18 (Mus musculus), Q61152 (parent)
chain: B1 chain

Variants of: B1
Details: with ppip2_mouse Pstpip2, Q99M15

Row | Variant | effect of a mutation on the interaction
1 | R444A | decreasing interaction

Variants of: B1
Details: with ppip2_mouse Pstpip2, Q99M15
Remark: another data set of the same source

Row | Variant | effect of a mutation on the interaction
2 | W450A | decreasing interaction

Variants of: B2
Details: with ptn18_mouse Ptpn18, Q61152

Row | Variant | effect of a mutation on the interaction
3 | W232A | disrupting interaction

Variants of: B3
Details: with ptn18_mouse Ptpn18, Q61152

Row | Variant | effect of a mutation on the interaction
4 | W232A | disrupting interaction

Variants of: B4
Details: with ppip1_mouse Pstpip1, P97814

Row | Variant | effect of a mutation on the interaction
5 | R444A | decreasing interaction

Variants of: B4
Details: with ppip1_mouse Pstpip1, P97814
Remark: another data set of the same source

Row | Variant | effect of a mutation on the interaction
6 | W450A | decreasing interaction

From IntAct's records for PubMed 9804817
